PMC6446905 (Science (New York, N.Y.), 2018)
Each block holds one binder with its values, some of them ahead of it.

How the values were obtained:
Assay in all cases: cryo-EM structure
TAF3 = target: T1, TAF3 (human (endogenous in HeLa), UniProt Q5VWG9 1-929)
T1 sequence (looked up): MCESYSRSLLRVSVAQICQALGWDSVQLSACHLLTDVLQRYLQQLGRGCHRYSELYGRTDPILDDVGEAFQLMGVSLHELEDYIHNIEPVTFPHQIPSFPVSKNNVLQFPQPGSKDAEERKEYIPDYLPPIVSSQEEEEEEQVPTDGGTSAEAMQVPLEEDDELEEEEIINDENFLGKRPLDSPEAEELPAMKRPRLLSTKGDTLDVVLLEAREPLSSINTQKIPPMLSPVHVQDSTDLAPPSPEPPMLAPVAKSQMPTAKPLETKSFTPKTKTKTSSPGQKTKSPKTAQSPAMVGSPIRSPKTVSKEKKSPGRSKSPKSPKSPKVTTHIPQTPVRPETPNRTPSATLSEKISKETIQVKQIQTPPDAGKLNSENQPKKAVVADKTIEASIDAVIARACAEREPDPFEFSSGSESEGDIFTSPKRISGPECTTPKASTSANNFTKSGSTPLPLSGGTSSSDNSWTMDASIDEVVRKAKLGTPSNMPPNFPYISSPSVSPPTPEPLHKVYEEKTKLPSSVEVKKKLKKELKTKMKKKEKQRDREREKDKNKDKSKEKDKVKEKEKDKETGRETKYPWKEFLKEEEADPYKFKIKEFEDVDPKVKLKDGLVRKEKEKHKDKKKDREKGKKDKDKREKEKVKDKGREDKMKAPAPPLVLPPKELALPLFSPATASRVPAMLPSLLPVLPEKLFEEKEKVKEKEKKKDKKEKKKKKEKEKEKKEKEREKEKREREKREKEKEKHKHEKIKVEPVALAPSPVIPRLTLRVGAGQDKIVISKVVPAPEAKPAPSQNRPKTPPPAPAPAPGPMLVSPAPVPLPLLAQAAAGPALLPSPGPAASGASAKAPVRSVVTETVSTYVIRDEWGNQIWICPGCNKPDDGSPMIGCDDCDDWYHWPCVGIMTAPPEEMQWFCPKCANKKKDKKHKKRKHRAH

TAF8 = target: T2, TAF8 (human (endogenous in HeLa), UniProt Q7Z7C8 1-310)
T2 sequence (looked up): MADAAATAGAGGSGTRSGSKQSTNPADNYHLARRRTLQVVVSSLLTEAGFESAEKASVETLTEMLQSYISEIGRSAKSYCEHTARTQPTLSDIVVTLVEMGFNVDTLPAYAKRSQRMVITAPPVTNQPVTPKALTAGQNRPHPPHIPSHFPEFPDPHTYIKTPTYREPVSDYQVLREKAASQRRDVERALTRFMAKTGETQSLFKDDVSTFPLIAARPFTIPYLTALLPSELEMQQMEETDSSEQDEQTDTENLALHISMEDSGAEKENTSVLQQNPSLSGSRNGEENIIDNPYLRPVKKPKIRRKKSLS

TAF11 = TAF11 (human (endogenous in HeLa), UniProt Q15544 1-211)
Sequence of TAF11 (Q15544 whole entry): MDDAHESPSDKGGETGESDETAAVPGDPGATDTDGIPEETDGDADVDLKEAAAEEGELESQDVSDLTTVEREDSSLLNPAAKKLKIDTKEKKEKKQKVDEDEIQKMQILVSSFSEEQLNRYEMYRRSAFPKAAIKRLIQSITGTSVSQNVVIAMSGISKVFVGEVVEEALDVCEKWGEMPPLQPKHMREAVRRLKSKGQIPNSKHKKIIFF

binding result (TAF3): binds
binding result (TAF8): binds
B1: TAF10 (natural protein)
chain: not shown

binding result (TAF11): binds
B2: TAF13 (natural protein, human (endogenous in HeLa), UniProt Q15543 1-124, looked up)
chain: MADEEEDPTFEEENEEIGGGAEGGQGKRKRLFSKELRCMMYGFGDDQNPYTESVDILEDLVIEFITEMTHKAMSIGRQGRVQVEDIVFLIRKDPRKFARVKDLLTMNEELKRARKAFDEANYGS
